Assays:
[1] = biological target: T1, recombinant human TfR1 (transferrin receptor protein 1) (human, UniProt P02786 89-760); experiment: ELISA on hTfR1, unconjugated Fab, % normalized RFUs
T1 construct: Recombinant protein in SPR and ELISA; they were assigned to this molecule; also called hTfR1; huTfR1

[2] = biological target: T2, recombinant cynomolgus monkey (Macaca fascicularis) TfR1 (cynomolgus monkey (Macaca fascicularis), UniProt Q5RDH6 87-760 (Pongo abelii entry), limits assumed); experiment: ELISA on cTfR1, unconjugated Fab, % normalized RFUs
T2 construct: Recombinant protein; also called cTfR1; cyTfR1
T2 chain: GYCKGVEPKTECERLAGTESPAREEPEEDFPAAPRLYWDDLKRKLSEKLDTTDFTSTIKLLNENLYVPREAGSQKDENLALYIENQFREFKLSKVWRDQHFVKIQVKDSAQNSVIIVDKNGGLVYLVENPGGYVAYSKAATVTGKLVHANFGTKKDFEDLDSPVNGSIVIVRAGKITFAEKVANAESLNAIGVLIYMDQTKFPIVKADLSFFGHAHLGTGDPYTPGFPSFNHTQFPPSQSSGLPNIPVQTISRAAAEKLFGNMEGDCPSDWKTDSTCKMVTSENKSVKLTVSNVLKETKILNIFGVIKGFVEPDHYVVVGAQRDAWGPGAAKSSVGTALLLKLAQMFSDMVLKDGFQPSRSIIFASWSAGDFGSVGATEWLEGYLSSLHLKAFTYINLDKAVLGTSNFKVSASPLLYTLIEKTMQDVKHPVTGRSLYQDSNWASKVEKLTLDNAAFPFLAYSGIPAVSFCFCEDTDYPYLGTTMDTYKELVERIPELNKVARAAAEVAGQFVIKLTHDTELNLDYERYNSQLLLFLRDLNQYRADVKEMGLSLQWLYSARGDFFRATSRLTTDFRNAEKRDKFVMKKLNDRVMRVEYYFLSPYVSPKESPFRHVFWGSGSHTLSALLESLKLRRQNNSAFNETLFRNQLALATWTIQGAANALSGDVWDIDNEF

[3] = biological target: T1, recombinant human TfR1 (transferrin …); experiment: Table 14, unconjugated Fab, d9 (after 9 days at 40 C); method not named
[4] = biological target: T2, recombinant cynomolgus monkey (Macaca …); experiment: as above
[5] = biological target: T1, recombinant human TfR1 (transferrin …); experiment: Table 14, unconjugated Fab, d0; method not named (values equal ELISA row of Table 13)
[6] = biological target: T2, recombinant cynomolgus monkey (Macaca …); experiment: as above
[7] = biological target: T3, recombinant rat TfR1 (rat, UniProt Q99376 89-761, limits assumed); experiment: ELISA on plate-coated recombinant rat TfR1, fluorescent anti-(H+L) IgG secondary
T3 construct: Recombinant protein coated on ELISA plates
Experimental: (§1) Serial dilutions of the Fab were added to plates precoated with recombinant human, cynomolgus monkey, mouse, or rat TfR1. After a short incubation, binding of the Fab was quantified by addition of a fluorescently tagged anti-(H+L) IgG secondary antibody and measurement of fluorescence intensity at 495 nm excitation and 520 nm emission.

[8] = biological target: T4, recombinant mouse TfR1 (mouse, UniProt Q62351 89-763); experiment: ELISA on plate-coated recombinant mouse TfR1, fluorescent anti-(H+L) IgG secondary
T4 construct: Recombinant protein coated on ELISA plates
Experimental: as §1

[9] = biological target: T1, recombinant human TfR1 (transferrin …); experiment: ELISA on plate-coated recombinant hTfR1, fluorescent anti-(H+L) IgG-A488 detection, % normalized RFUs
Experimental: (§2) To measure binding of humanized anti-TfR antibodies to TfR1, ELISAs were conducted. High binding, black, flat bottom, 96 well plates (Corning #3925) were first coated with 100 μL/well of recombinant huTfR1 at 1 μg/mL in PBS and incubated at 4° C. overnight. Wells were emptied and residual liquid was removed. Blocking was conducted by adding 200 μL of 1% BSA (w/w) in PBS to each well. Blocking was allowed to proceed for 2 hours at room temperature on a shaker at 30) rpm. After blocking, liquid was removed and wells were washed three times with 300 μL of TBST. Anti-TfR1 antibodies were then added in 0.5% BSA/TBST in triplicate in an 8 point serial dilution (dilution range 5 μg/mL-5 ng/mL). A positive control and isotype controls were also included on the ELISA plate. The plate was incubated at room temperature on an orbital shaker for 60 minutes at 300 rpm, and the plate was washed three times with 300 μL of TBST. Anti-(H+L)IgG-A488 (1:500) (Invitrogen #A11013) was diluted in 0.5% BSA in TBST, and 100 μL was added to each well. The plate was then allowed to incubate at room temperature for 60 minutes at 300 rpm on orbital shaker. The liquid was removed and the plate was washed four times with 300 μL of TBST. […] Data was recorded and analyzed for $EC50$. […]

[10] = biological target: T2, recombinant cynomolgus monkey (Macaca …); experiment: ELISA on plate-coated recombinant cTfR1, fluorescent anti-(H+L) IgG-A488 detection, % normalized RFUs
Experimental: as §2

T4 sequence (Q62351 89-763 limits assumed): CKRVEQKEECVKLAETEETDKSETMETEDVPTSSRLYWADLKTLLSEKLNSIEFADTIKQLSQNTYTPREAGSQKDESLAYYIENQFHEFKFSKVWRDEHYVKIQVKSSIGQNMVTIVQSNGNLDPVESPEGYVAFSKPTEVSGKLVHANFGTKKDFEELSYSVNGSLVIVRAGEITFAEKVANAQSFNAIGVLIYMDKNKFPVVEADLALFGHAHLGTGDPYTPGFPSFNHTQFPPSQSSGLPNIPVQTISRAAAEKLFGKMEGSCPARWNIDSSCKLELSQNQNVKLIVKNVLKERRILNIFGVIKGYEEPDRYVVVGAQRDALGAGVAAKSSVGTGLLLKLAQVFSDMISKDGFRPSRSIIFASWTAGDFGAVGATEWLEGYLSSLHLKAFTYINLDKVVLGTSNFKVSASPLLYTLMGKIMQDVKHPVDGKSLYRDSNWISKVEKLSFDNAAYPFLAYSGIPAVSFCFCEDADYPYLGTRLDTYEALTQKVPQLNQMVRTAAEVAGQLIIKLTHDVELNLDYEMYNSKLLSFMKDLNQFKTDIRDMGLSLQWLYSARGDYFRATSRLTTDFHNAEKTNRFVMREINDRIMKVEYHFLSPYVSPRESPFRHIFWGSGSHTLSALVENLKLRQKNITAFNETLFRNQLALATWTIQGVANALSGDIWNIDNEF
T3 sequence (Q99376 89-761 limits assumed): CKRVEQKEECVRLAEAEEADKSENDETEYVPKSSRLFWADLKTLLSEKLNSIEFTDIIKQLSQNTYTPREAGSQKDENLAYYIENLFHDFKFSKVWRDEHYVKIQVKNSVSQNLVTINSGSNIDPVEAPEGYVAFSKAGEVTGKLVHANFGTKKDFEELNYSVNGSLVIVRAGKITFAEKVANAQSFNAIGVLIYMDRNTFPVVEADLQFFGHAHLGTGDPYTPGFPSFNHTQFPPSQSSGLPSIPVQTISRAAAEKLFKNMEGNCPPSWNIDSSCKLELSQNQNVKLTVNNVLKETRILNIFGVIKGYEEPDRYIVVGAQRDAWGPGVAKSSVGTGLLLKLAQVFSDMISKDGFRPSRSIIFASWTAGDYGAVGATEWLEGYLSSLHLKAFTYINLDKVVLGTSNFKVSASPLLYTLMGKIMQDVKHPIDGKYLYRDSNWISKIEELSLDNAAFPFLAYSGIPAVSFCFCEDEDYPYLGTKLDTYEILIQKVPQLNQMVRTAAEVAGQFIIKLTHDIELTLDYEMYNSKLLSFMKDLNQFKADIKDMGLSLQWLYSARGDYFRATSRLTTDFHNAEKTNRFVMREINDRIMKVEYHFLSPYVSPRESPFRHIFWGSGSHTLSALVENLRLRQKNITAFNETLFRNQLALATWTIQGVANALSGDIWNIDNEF

B1: humanized anti-TfR Fab 3M12 VH4/Vκ3 (Fab, V domains shown)
VH: QVQLQESGPGLVKPSQTLSLTCTVTGYSITSGYYWNWIRQPPGKGLEWIGYITFDGANNYNPSLKNRVSISRDTSKNQFSLKLSSVTAEDTATYYCTRSSYDYDVLDYWGQGTTVTVSS
VL: DIQMTQSPSSLSASVGDRVTITCRASQDISNFLNWYQQKPGQPVKLLIYYTSRLHSGVPSRFSGSGSGTDFTLTISSLQPEDFATYYCQQGHTLPYTFGQGTKLEIKR
notes: also called 3M12 (VH4/Vk3); anti-TfR Fab 3M12 VH4/Vk3
[1]
  EC50: 2.1 nM
[2]
  EC50: 9.9 nM
[3]
  Binding affinity: 0.28 nM
[4]
  Binding affinity: 16.4 nM
[5]
  Binding affinity: 0.5 nM
[6]
  Binding affinity: 2.2 nM
[7]
  binding result: no binding (tested: 500 nM)
[8]
  binding result: no binding (tested: 500 nM)
[9]
  EC50: 2.1 nM
[10]
  EC50: 9.9 nM

Source: patent publication US11844843 (DYNE THERAPEUTICS, dated 2023)
